Assays:
HER2 on cells = HER2 on cells (human, UniProt P04626 23-1255); assay: cell-based or functional assay
[1] = target: T cell receptor alpha/beta on primary cynomolgus T cells (cynomolgus); assay: cell-based or functional assay
CEACAM5 on cells [2] = target: T1, CEACAM5 on cells (UniProt P06731 35-685); assay: cell-based or functional assay
T1 sequence (looked up): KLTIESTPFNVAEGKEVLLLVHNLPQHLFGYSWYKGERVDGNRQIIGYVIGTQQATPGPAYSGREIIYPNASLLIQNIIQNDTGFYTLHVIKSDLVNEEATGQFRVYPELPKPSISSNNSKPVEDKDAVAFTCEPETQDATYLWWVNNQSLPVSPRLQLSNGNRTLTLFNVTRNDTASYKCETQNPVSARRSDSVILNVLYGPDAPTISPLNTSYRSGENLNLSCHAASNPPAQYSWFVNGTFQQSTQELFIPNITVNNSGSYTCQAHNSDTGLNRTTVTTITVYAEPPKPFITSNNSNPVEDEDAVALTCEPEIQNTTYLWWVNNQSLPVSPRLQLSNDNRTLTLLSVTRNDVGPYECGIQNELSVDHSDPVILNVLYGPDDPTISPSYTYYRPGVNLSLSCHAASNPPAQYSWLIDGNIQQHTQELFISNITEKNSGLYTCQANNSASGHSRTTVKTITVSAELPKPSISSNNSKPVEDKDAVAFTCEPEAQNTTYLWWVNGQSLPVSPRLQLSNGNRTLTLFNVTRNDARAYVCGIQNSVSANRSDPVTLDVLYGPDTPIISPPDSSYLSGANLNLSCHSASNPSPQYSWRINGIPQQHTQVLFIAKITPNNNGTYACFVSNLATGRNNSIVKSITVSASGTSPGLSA

CEACAM5 on cells [3] = target: T1, CEACAM5 on cells; assay: cell-based or functional assay; remark: listed apart in the source
CEACAM5 on cells [4] = target: T1, CEACAM5 on cells; assay: flow cytometry, LoVo cells; parameters: Top: unit not given here
CEACAM5 on cells [5] = target: T1, CEACAM5 on cells; assay: flow cytometry, LS174T cells; parameters: Top: unit not given here
EGFR on cells [6] = target: T2, EGFR on cells (UniProt P00533 25-1210, limits assumed); assay: flow cytometry on HER14 cells, MeanFI (PE)
T2 construct: whole, on cells; also called HER14 cells (NIH3T3 transfected with EGFR); EGFR on LS174T and LoVo cells

[7] = target: T3, human CD3 expressed on HEK293H cells (human, UniProt P04234 22-171; P09693 23-182; P07766 23-207; P20963 22-164); assay: flow cytometry, HEK293H human CD3 cells
T3 construct: also called HEK293H human CD3; HEK293H CD3
T3 sequence (P04234 22-171 limits assumed, chain 1 of 4): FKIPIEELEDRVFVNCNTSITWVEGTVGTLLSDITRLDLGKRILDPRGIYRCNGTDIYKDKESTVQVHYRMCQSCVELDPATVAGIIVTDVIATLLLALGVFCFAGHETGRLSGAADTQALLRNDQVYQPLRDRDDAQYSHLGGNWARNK
T3 sequence (P09693 23-182 limits assumed, chain 2 of 4): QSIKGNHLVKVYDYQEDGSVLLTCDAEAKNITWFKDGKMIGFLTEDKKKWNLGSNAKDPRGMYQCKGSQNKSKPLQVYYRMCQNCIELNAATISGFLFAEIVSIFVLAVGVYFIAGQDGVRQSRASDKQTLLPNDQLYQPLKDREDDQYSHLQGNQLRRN
T3 sequence (P07766 23-207 limits assumed, chain 3 of 4): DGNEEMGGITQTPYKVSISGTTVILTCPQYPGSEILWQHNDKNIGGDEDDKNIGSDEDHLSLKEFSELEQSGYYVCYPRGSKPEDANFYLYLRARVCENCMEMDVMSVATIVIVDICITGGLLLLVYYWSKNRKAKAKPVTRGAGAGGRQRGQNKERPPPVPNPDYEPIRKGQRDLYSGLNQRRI
T3 sequence (P20963 22-164 limits assumed, chain 4 of 4): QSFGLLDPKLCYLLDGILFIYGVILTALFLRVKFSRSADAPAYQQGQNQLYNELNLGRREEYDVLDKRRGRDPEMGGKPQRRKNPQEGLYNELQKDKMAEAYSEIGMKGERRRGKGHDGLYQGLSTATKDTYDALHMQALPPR
Description: (§1) Binding of purified monovalent anti-TCR Nanobodies to human TCR(2IAN)/CD3 expressed on HEK293H cells was evaluated and compared with the binding to HEK293H cells transfected with human CD3 in flow cytometry, as outlined in Example 5. Dilution series of anti-TCR Nanobodies starting from 1 μM were applied to the cells. The parental HEK293H cell line was included as TCR/CD3 negative cell line.
Nanobodies clearly bound to human TCR(2IAN)/CD3 expressed on HEK293H but not to the HEK293H cells transfected with human CD3 only, nor to the HEK293H parental cell line. The EC50 values obtained from the dose response curve are depicted in Table C-2.

[8] = target: T4, soluble recombinant cynomolgus TCR alpha/beta-zipper protein (cynomolgus/rhesus monkey); assay: ELISA, coated soluble cynomolgus TCR-zipper
T4 construct: Made in house in CHOK1SV cells; extracellular domains fused to a zipper protein; also called cynoTCR-zipper protein; not shown: zipper protein (O'Shea et al. 1993)
T4 V domain 1: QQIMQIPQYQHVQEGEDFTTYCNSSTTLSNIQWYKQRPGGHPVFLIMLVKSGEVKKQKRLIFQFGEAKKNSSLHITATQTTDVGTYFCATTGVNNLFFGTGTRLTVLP
T4 V domain 2: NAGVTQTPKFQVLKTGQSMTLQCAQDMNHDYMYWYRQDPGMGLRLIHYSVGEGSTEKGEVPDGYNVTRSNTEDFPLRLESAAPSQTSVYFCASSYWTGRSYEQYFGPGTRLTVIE
Description: Quality of the TCR α/β zipper proteins was assessed in an ELISA binding assay. Maxisorp 96-well ELISA plates (Nunc) were coated with 2 μg/mL soluble recombinant human TCR α/β (2XN9)-zipper protein or soluble recombinant cynomolgus TCR α/β-zipper protein. After an overnight incubation, plates were washed and blocked with PBS+1% casein for 1 h at room temperature. Next, plates were incubated with serial dilutions of either a functional flag tagged Nanobody or the functional mouse IgG anti-non-human primate/Rat TCRα/β antibody, clone R73 (eBioscience 16-5960) for 1 h at room temperature while shaking, washed again and incubated with mouse anti-flag-HRP (Sigma, #A8592) respectively rabbit anti-mouse-HRP (Dako, # P0260). After 1 h, TMB One Solution (Promega #G7431) was added. The reaction was stopped with 2M H₂SO₄ and the dose dependent binding was determined by measuring the OD at 450 nm using the Tecan sunrise 4 (FIG. 2).
Binding of purified monovalent anti-TCR Nanobodies to soluble recombinant cynomolgus TCR c/3 protein was evaluated in ELISA (as described in Example 1.2) using 2 μg/ml directly coated recombinant soluble cynomolgus TCR-α/β zipper protein.

[9] = target: T5, T cell receptor alpha/beta on purified primary human T cells (human, UniProt P01848 1-140; P01850 1-176); assay: flow cytometry, purified primary human T cells
T5 construct: whole, on cells; also called human primary T cells
T5 TCR alpha (looked up): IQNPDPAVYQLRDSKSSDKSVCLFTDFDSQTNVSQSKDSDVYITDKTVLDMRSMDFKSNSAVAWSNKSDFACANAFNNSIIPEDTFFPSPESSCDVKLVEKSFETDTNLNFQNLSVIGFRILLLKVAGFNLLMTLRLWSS
T5 TCR beta (looked up): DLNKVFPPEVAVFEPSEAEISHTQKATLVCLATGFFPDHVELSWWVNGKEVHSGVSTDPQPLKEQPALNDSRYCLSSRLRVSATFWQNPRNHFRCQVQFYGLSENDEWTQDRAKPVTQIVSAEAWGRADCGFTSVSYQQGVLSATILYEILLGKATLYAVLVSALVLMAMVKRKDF
Description: Periplasmic extracts were screened for cell expressed TCR/CD3 binding using human TCR/CD3 transfected CHO-K1 or HEK293H cells and the respective CHO-K1 or HEK293H reference cell line in a mixed cell line setup. To this end, a large batch of the reference cell lines were labelled with 8 μM PKH26 and frozen. 5×10⁴ PKH labelled reference cells were mixed with 5×10⁴ target cells and incubated with periplasmic extracts for 30 min at 4′C, and washed 3 times. […] Samples were washed, resuspended in FACS Buffer (D-PBS from Gibco, with 10% FBS from Sigma and 0.05% sodium azide from Merck) and then analysed via a BD FACSArray. […] In this gate, 20,000 cells were counted during acquisition. Based on PKH26-SSC distribution, the PKH labelled parental population and the human TCR/CD3 unlabelled target population was selected. For these 2 populations the mean APC value was calculated.
Binding of purified monovalent anti-TCR Nanobodies to human TCR(2XN9)/CD3 expressed on CHO-K1 cells and to purified primary human T cells was evaluated in flow cytometry as outlined in Example 4.1.

[10] = target: T3, human CD3 expressed on HEK293H cells; assay: flow cytometry on HEK293H human CD3 cells, MCF
Description: as §1

EGFR on cells [11] = target: T2, EGFR on cells; assay: cell-based or functional assay
EGFR on cells [12] = target: T2, EGFR on cells; assay: cell-based or functional assay; remark: listed apart in the source
EGFR on cells [13] = target: T2, EGFR on cells; assay: flow cytometry, LoVo cells; parameters: Top: unit not given here
EGFR on cells [14] = target: T2, EGFR on cells; assay: flow cytometry, HER14 cells
EGFR on cells [15] = target: T2, EGFR on cells; assay: flow cytometry, LS174T cells; parameters: Top: unit not given here

B1: T017000103 (bispecific antibody)
chain: EVQLVESGGGLVQPGGSLRLSCVASGDVHKINFLGWYRQAPGKEREKVAHISIGDQTDYADSAKGRFTISRDESKNMVYLQMNSLKPEDTAVYFCRAFSRIYPYDYWGQGTLVTVSSGGGGSGGGGSGGGGSGGGGSGGGGSGGGGSGGGGSEVQLVESGGGLVQAGGSLRLSCAASGITFSINTMGWYRQAPGKQRELVALISSIGDTYYADSVKGRFTISRDNAKNTVYLQMNSLKPEDTAVYYCKRFRTAAQGTDYWGQGTLVTVSSGAADYKDHDGDYKDHDIDYKDDDDKGAAHHHHHH
HER2 on cells
  IC50, xCELLigence based cytotoxicity (readout 18 h), MCF-7, human T cells, E/T 15:1: 0.059 nM
  IC50, xCELLigence based cytotoxicity (readout 18 h), SKBR3, human T cells, E/T 15:1: 0.0038 nM
[1]
  IC50, xCELLigence cynomolgus T cell mediated SKBR3 killing assay: 0.012 nM

B2: T017000109 (other)
chain: EVQLVESGGGSVQAGGSLRLSCAASGYTIGPYCMGWFRQAPGKEREGVAAINMGGGITYYADSVKGRFTISQDNAKNTVYLLMNSLEPEDTAIYYCAADSTIYASYYECGHGLSTGGYGYDSWGQGTLVTVSSGGGGSGGGGSGGGGSGGGGSGGGGSGGGGSGGGGSEVQLVESGGGSVQAGGSLRLSCAASGDTYGSYWMGWFRQAPGKEREGVAAINRGGGYTVYADSVKGRFTISRDTAKNTVYLQMNSLRPDDTADYYCAASGVLGGLHEDWFNYWGQGTLVTVSSGGGGSGGGGSGGGGSGGGGSGGGGSGGGGSGGGGSEVQLVESGGGLVQPGGSLRLSCVASGDVHKINFLGWYRQAPGKEREKVAHISIGDQTDYADSAKGRFTISRDESKNMVYLQMNSLKPEDTAVYFCRAFSRIYPYDYWGQGTLVTVSSGAADYKDHDGDYKDHDIDYKDDDDKGAAHHHHHH
notes: Irrelevant (anti-egg lysozyme) x CEACAM5 x TCR Nanobody construct; entry includes the FLAG3-HIS6 tag; also called cAbLys3(D1E,Q5V,A6E,Q108L)-35GS-NbCEA5-35GS-T0170056G05-FLAG3-HIS6
CEACAM5 on cells [2]
  IC50, xCELLigence human T cell mediated killing of LS174T cells, E:T 15, 30-40 h: 100 nM
  IC50, xCELLigence human T cell mediated killing of LoVo cells, E:T 15, 30-40 h: 9.3 nM
CEACAM5 on cells [3]
  IC50, xCELLigence human T cell mediated killing of LS174T cells, E:T 15, 50-60 h: 36 nM
  IC50, xCELLigence human T cell mediated killing of LoVo cells, E:T 15, 50-60 h: 2 nM
CEACAM5 on cells [4]
  EC50: 36 nM
  Top: 18500
CEACAM5 on cells [5]
  EC50: 25 nM
  Top: 51000
EGFR on cells [6]
  binding result: no binding (tested: 5e-7 M)

B3: T0170068G05 (VHH)
VHH: VQLVEESGGGLVQPGGSLRLSCITSGETFKINIWGWYRQAPGKQRELVASLTIGGATNYADSVKGRFTISEDSAKNTVYLQMNSLKPEDTAVYFCNAKSRIYPYDYWGRGTQVTVSS
notes: Monovalent anti-TCR Nanobody, cluster B; expressed in E. coli as triple Flag, His6-tagged protein; also called T0170PMP068G05; not shown: C-terminal triple Flag-His6 tag of the E. coli-made monovalent Nanobody
[7]
  MCF at 1 µM: 240 MCF
[8]
  EC50: 87 nM
[9]
  EC50: > 100 nM
[10]
  binding result: no binding (tested: 1e-6 M)

B4: T017000110 (other)
chain: EVQLVESGGGLVQAGGSLRLSCAASGRTFSSYVMGWFRQATGKEREFVATIAWDSGSTYYADSVKGRFTISRDNAKNTVHLQMNSLKPEDTAVYYCAASYNVYYNNYYYPISRDEYDYWGQGTLVTVSSGGGGSGGGGSGGGGSGGGGSGGGGSGGGGSGGGGSEVQLVESGGGSVQAGGSLRLSCAASGYTIGPYCMGWFRQAPGKEREGVAAINMGGGITYYADSVKGRFTISQDNAKNTVYLLMNSLEPEDTAIYYCAADSTIYASYYECGHGLSTGGYGYDSWGQGTLVTVSSGGGGSGGGGSGGGGSGGGGSGGGGSGGGGSGGGGSEVQLVESGGGLVQPGGSLRLSCVASGDVHKINFLGWYRQAPGKEREKVAHISIGDQTDYADSAKGRFTISRDESKNMVYLQMNSLKPEDTAVYFCRAFSRIYPYDYWGQGTLVTVSSGAADYKDHDGDYKDHDIDYKDDDDKGAAHHHHHH
notes: EGFR x irrelevant (anti-egg lysozyme) x TCR Nanobody construct; entry includes the FLAG3-HIS6 tag; also called EGFR038G07-35GS-cAbLys3(D1E,Q5V,A6E,Q108L)-35GS-T0170056G05-FLAG3-HIS6
EGFR on cells [11]
  IC50, xCELLigence human T cell mediated killing of LS174T cells, E:T 15, 30-40 h: 26 nM
  IC50, xCELLigence human T cell mediated killing of LoVo cells, E:T 15, 30-40 h: 1.5 nM
EGFR on cells [12]
  IC50, xCELLigence human T cell mediated killing of HER14 cells, E:T 15, 50-60 h: 0.42 nM
  IC50, xCELLigence human T cell mediated killing of LS174T cells, E:T 15, 50-60 h: 8.9 nM
  IC50, xCELLigence human T cell mediated killing of LoVo cells, E:T 15, 50-60 h: 0.6 nM
EGFR on cells [13]
  EC50: 2.4 nM
  Top: 95900
EGFR on cells [14]
  EC50: 7.3 nM
  Top: 165000
EGFR on cells [15]
  EC50: 6.3 nM
  Top: 40800

B5: T017000102 (bispecific antibody)
chain: EVQLVESGGGLVQAGGSLRLSCAASGITFSINTMGWYRQAPGKQRELVALISSIGDTYYADSVKGRFTISRDNAKNTVYLQMNSLKPEDTAVYYCKRFRTAAQGTDYWGQGTLVTVSSGGGGSGGGGSGGGGSGGGGSGGGGSGGGGSGGGGSEVQLVESGGGLVQPGGSLRLSCVASGDVHKINFLGWYRQAPGKEREKVAHISIGDQTDYADSAKGRFTISRDESKNMVYLQMNSLKPEDTAVYFCRAFSRIYPYDYWGQGTLVTVSSGAADYKDHDGDYKDHDIDYKDDDDKGAAHHHHHH
HER2 on cells
  IC50 (column head prints EC50), xCELLigence based cytotoxicity (readout 18 h), MCF-7, human T cells, E/T 15:1: 0.12 nM
  IC50, xCELLigence based cytotoxicity (readout 18 h), SKBR3, human T cells, E/T 15:1: 0.014 nM
[1]
  IC50, xCELLigence cynomolgus T cell mediated SKBR3 killing assay: 0.046 nM

Reference: patent US20190112392A1 (Ablynx, published 2019)
